Experimental data taken from the supplement of paper PMC10065799, “High-throughput profiling of sequence recognition by tyrosine kinases and SH2 domains using bacterial peptide display” (eLife, 2023).

molecular target: FGFR3 (UniProt P22607); assay: phosphorylation enrichment, bacterial display (enrichment ratio); higher = better substrate or ligand; peptides without Tyr show the background
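Further: 11-residue human phosphosite peptides and single-mutation variants displayed on the E. coli surface, counted by deep sequencing, each peptide's frequency after selection divided by its frequency in the unselected input library; frequency after pTyr selection over input frequency; kinase dosed for 20-30% of maximal phosphorylation in three min.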

Sequence of FGFR3 (P22607 whole entry, looked up): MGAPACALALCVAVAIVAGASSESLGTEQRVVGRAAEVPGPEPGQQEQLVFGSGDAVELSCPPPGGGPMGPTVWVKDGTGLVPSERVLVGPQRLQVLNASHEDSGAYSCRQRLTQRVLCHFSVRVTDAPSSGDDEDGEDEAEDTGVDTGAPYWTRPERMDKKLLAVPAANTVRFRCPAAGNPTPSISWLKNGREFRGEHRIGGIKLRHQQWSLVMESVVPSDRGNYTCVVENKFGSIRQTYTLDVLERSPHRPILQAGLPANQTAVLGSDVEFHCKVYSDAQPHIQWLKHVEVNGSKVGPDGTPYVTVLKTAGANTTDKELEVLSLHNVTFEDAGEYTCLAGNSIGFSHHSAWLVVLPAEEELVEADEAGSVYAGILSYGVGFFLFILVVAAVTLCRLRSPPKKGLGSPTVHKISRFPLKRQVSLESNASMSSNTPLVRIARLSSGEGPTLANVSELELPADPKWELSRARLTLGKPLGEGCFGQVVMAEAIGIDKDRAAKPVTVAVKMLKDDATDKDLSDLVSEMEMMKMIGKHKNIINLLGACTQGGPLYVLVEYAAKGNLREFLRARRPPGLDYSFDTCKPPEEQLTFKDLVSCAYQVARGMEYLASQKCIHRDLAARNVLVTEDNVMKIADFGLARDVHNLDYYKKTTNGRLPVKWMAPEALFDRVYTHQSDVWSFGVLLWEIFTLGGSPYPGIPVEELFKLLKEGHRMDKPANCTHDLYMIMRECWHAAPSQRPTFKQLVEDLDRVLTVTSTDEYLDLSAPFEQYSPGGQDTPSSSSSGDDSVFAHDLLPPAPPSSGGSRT

| Sequence | phosphorylation enrichment |
| --- | --- |
| KNNDGNIDYAE [MCFD2_Y135_Y135N] | 0.916 |
| DPKFHYDNTAG [KDR_Y1214] | 0.489 |
| NHFKICNLCAE [PTEN_Y68_Y68C_YF] | 0.544 |
| PDGREYIYVDP [PDGFRA_Y572_H570R] | 5.18 |
| GMIQAYSSSQR [DES_Y5_S2I] | 0.389 |
| EGNERYEGFCV [GRIA3_Y451_YF] | 0.697 |
| MENFIYESMQY [CYP19A1_Y361_R365Q] | 0.724 |
| PSDLLYIPDIQ [ITGA2B_Y845_L847P] | 1.37 |
| ITKQEYDEAGP [ACTA1_Y364] | 0.689 |
| GYCSWYRGWAP [TIMP3_Y195] | 1 |
| KKFVPYYDLFM [IPO5_Y530_E525K] | 3.24 |
| IRRWVYPLTPE [EIF2B5_Y319] | 0.613 |
| REVVNYVQKRS [RMI1_Y450_N455S] | 0.835 |
| GAVGNYSRGLA [MGMT_Y158_G160R] | 0.465 |
| ATFRGYDSDNP [MMUT_Y146_H143Y_YF] | 0.531 |
| QYKGKYLAKHN [CASK_Y712_D710G] | 1.29 |
| FLGKGYSDGGC [MC4R_Y35_S30F] | 0.623 |

| Sequence | phosphorylation enrichment |
| --- | --- |
| RAKLFYQEVPA [METTL11B_Y76] | 2.39 |
| VREIRCQGGNR [VWF_Y1570_Y1570C] | 0.419 |
| KRFAFYRDSPR [FOXE3_Y108_E103K] | 0.479 |
| TAGFSYEKWEI [TEC_Y360] | 0.72 |
| EEEFEYMNRRR [ERBB3_Y1199_D1194E_YF] | 0.767 |
| DPLLTYWFPPK [LMNA_Y481_R482W] | 6.67 |
| IKGNMYYENSY [EGFR_Y112_R108K] | 0.641 |
| VLNHAYENLTR [SYNE2_Y3255_D3253H] | 0.625 |
| NLNGKYYKPRA [ANGPTL3_Y417_N418Y] | 0.445 |
| RSAGKDDVYLI [MECP2_Y120_Y120D] | 0.594 |
| SVVVPYEPPEV [TP53_Y220] | 0.748 |
| AEARMYGVLPW [PLP1_Y207_D203E] | 0.559 |
| ADKSAYLMGPN [MYH7_Y386_L390P] | 0.545 |
| VPHECYAKVFD [ALB_Y394_D389V] | 0.727 |
| VKANTYEKFWL [GATM_Y100_P105L_YF] | 0.722 |
| FSLPAYMDRRD [COX4I1_Y38] | 0.622 |

molecular target: Fyn (UniProt P06241); assay: as above
Sequence (P06241 whole entry, looked up): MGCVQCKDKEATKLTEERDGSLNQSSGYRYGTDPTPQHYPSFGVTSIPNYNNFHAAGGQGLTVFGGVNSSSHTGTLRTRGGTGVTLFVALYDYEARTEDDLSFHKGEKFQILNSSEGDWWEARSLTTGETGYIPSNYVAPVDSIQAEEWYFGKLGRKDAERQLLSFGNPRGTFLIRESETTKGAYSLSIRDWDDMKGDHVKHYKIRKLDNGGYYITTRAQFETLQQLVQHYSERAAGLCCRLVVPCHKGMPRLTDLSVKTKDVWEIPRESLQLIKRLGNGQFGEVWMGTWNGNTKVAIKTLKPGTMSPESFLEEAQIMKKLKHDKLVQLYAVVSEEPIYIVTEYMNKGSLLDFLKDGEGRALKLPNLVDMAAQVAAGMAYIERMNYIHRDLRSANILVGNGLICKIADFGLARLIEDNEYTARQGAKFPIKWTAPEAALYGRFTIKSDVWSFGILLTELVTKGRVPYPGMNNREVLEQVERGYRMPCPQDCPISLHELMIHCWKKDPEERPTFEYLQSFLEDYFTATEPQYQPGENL

| Sequence | phosphorylation enrichment |
| --- | --- |
| KNNDGNIDYAE [MCFD2_Y135_Y135N] | 0.462 |
| DPKFHYDNTAG [KDR_Y1214] | 0.524 |
| NHFKICNLCAE [PTEN_Y68_Y68C_YF] | 0.415 |
| PDGREYIYVDP [PDGFRA_Y572_H570R] | 1.07 |
| GMIQAYSSSQR [DES_Y5_S2I] | 0.346 |
| EGNERYEGFCV [GRIA3_Y451_YF] | 0.58 |
| MENFIYESMQY [CYP19A1_Y361_R365Q] | 9.05 |
| PSDLLYIPDIQ [ITGA2B_Y845_L847P] | 0.917 |
| ITKQEYDEAGP [ACTA1_Y364] | 0.563 |
| GYCSWYRGWAP [TIMP3_Y195] | 0.671 |
| KKFVPYYDLFM [IPO5_Y530_E525K] | 2.06 |
| IRRWVYPLTPE [EIF2B5_Y319] | 0.514 |
| REVVNYVQKRS [RMI1_Y450_N455S] | 0.581 |
| GAVGNYSRGLA [MGMT_Y158_G160R] | 0.377 |
| ATFRGYDSDNP [MMUT_Y146_H143Y_YF] | 0.51 |
| QYKGKYLAKHN [CASK_Y712_D710G] | 0.658 |
| FLGKGYSDGGC [MC4R_Y35_S30F] | 0.548 |

| Sequence | phosphorylation enrichment |
| --- | --- |
| RAKLFYQEVPA [METTL11B_Y76] | 0.716 |
| VREIRCQGGNR [VWF_Y1570_Y1570C] | 0.401 |
| KRFAFYRDSPR [FOXE3_Y108_E103K] | 0.446 |
| TAGFSYEKWEI [TEC_Y360] | 0.503 |
| EEEFEYMNRRR [ERBB3_Y1199_D1194E_YF] | 0.515 |
| DPLLTYWFPPK [LMNA_Y481_R482W] | 6.5 |
| IKGNMYYENSY [EGFR_Y112_R108K] | 0.503 |
| VLNHAYENLTR [SYNE2_Y3255_D3253H] | 0.33 |
| NLNGKYYKPRA [ANGPTL3_Y417_N418Y] | 0.241 |
| RSAGKDDVYLI [MECP2_Y120_Y120D] | 1.14 |
| SVVVPYEPPEV [TP53_Y220] | 0.502 |
| AEARMYGVLPW [PLP1_Y207_D203E] | 7.15 |
| ADKSAYLMGPN [MYH7_Y386_L390P] | 0.544 |
| VPHECYAKVFD [ALB_Y394_D389V] | 0.564 |
| VKANTYEKFWL [GATM_Y100_P105L_YF] | 0.803 |
| FSLPAYMDRRD [COX4I1_Y38] | 0.355 |

molecular target: EPHB2 (UniProt P29323); assay: as above
Sequence (P29323 whole entry, looked up): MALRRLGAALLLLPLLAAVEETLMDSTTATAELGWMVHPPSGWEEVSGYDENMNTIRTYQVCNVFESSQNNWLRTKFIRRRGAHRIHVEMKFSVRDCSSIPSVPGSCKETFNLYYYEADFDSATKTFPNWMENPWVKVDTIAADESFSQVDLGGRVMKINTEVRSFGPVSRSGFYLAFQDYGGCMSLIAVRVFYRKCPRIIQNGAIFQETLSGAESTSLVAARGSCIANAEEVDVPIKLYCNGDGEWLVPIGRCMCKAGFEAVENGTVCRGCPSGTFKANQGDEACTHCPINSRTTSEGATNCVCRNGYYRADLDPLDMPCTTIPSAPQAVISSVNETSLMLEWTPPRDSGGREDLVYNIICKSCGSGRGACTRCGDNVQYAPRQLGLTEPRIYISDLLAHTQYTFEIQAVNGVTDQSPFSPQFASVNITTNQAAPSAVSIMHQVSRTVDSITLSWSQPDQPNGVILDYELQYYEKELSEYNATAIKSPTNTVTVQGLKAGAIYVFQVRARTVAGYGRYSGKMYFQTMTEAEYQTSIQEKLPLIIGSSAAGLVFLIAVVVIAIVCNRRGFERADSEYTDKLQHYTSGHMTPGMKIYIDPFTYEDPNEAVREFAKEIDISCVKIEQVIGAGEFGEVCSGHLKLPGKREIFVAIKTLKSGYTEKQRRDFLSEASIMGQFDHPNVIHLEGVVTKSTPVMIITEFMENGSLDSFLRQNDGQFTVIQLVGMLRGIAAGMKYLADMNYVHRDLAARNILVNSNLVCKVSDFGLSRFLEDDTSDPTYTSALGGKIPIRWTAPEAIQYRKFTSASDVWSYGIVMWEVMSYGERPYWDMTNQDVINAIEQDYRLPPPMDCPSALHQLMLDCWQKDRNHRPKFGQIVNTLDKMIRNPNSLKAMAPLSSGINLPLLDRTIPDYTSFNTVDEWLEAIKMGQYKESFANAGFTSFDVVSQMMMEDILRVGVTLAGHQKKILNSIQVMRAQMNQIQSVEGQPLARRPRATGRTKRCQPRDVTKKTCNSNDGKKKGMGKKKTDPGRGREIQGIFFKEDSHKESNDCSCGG

| Sequence | phosphorylation enrichment |
| --- | --- |
| KNNDGNIDYAE [MCFD2_Y135_Y135N] | 0.53 |
| DPKFHYDNTAG [KDR_Y1214] | 0.422 |
| NHFKICNLCAE [PTEN_Y68_Y68C_YF] | 0.468 |
| PDGREYIYVDP [PDGFRA_Y572_H570R] | 2.74 |
| GMIQAYSSSQR [DES_Y5_S2I] | 0.334 |
| EGNERYEGFCV [GRIA3_Y451_YF] | 0.515 |
| MENFIYESMQY [CYP19A1_Y361_R365Q] | 5.02 |
| PSDLLYIPDIQ [ITGA2B_Y845_L847P] | 1.1 |
| ITKQEYDEAGP [ACTA1_Y364] | 0.488 |
| GYCSWYRGWAP [TIMP3_Y195] | 0.712 |
| KKFVPYYDLFM [IPO5_Y530_E525K] | 4.22 |
| IRRWVYPLTPE [EIF2B5_Y319] | 0.522 |
| REVVNYVQKRS [RMI1_Y450_N455S] | 0.35 |
| GAVGNYSRGLA [MGMT_Y158_G160R] | 0.397 |
| ATFRGYDSDNP [MMUT_Y146_H143Y_YF] | 0.513 |
| QYKGKYLAKHN [CASK_Y712_D710G] | 0.699 |
| FLGKGYSDGGC [MC4R_Y35_S30F] | 0.567 |

| Sequence | phosphorylation enrichment |
| --- | --- |
| RAKLFYQEVPA [METTL11B_Y76] | 1.9 |
| VREIRCQGGNR [VWF_Y1570_Y1570C] | 0.432 |
| KRFAFYRDSPR [FOXE3_Y108_E103K] | 0.387 |
| TAGFSYEKWEI [TEC_Y360] | 0.577 |
| EEEFEYMNRRR [ERBB3_Y1199_D1194E_YF] | 0.532 |
| DPLLTYWFPPK [LMNA_Y481_R482W] | 14.8 |
| IKGNMYYENSY [EGFR_Y112_R108K] | 0.583 |
| VLNHAYENLTR [SYNE2_Y3255_D3253H] | 0.4 |
| NLNGKYYKPRA [ANGPTL3_Y417_N418Y] | 0.324 |
| RSAGKDDVYLI [MECP2_Y120_Y120D] | 0.603 |
| SVVVPYEPPEV [TP53_Y220] | 0.645 |
| AEARMYGVLPW [PLP1_Y207_D203E] | 1.05 |
| ADKSAYLMGPN [MYH7_Y386_L390P] | 0.391 |
| VPHECYAKVFD [ALB_Y394_D389V] | 0.716 |
| VKANTYEKFWL [GATM_Y100_P105L_YF] | 0.545 |
| FSLPAYMDRRD [COX4I1_Y38] | 0.471 |

molecular target: FGFR1 (UniProt P11362); assay: as above
Sequence (P11362 whole entry, looked up): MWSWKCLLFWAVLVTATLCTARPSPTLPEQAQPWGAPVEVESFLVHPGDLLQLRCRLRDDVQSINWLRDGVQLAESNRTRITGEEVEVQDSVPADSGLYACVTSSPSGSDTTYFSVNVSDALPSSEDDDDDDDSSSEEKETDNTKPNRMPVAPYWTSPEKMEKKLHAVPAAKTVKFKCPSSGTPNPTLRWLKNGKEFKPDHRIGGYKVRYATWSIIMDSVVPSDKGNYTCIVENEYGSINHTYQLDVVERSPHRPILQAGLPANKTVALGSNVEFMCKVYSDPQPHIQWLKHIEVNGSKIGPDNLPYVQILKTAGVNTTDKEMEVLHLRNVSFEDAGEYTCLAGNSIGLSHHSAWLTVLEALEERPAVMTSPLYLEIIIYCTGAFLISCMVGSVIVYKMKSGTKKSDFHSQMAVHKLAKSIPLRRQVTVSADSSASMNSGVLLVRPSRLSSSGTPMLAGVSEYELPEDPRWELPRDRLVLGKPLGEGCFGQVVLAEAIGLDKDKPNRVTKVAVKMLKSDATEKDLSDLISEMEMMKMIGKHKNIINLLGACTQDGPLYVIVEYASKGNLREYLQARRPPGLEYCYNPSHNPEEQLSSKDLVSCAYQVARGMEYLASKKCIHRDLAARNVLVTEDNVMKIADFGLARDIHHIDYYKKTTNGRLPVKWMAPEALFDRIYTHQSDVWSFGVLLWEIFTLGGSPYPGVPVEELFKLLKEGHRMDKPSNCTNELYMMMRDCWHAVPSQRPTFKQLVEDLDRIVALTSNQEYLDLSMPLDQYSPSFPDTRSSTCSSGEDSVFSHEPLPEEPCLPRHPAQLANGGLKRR

| Sequence | phosphorylation enrichment |
| --- | --- |
| KNNDGNIDYAE [MCFD2_Y135_Y135N] | 0.501 |
| DPKFHYDNTAG [KDR_Y1214] | 0.467 |
| NHFKICNLCAE [PTEN_Y68_Y68C_YF] | 0.401 |
| PDGREYIYVDP [PDGFRA_Y572_H570R] | 8.67 |
| GMIQAYSSSQR [DES_Y5_S2I] | 0.384 |
| EGNERYEGFCV [GRIA3_Y451_YF] | 0.649 |
| MENFIYESMQY [CYP19A1_Y361_R365Q] | 0.652 |
| PSDLLYIPDIQ [ITGA2B_Y845_L847P] | 1.21 |
| ITKQEYDEAGP [ACTA1_Y364] | 0.475 |
| GYCSWYRGWAP [TIMP3_Y195] | 0.807 |
| KKFVPYYDLFM [IPO5_Y530_E525K] | 4.49 |
| IRRWVYPLTPE [EIF2B5_Y319] | 0.451 |
| REVVNYVQKRS [RMI1_Y450_N455S] | 0.65 |
| GAVGNYSRGLA [MGMT_Y158_G160R] | 0.406 |
| ATFRGYDSDNP [MMUT_Y146_H143Y_YF] | 0.571 |
| QYKGKYLAKHN [CASK_Y712_D710G] | 1.01 |
| FLGKGYSDGGC [MC4R_Y35_S30F] | 0.672 |

| Sequence | phosphorylation enrichment |
| --- | --- |
| RAKLFYQEVPA [METTL11B_Y76] | 2.88 |
| VREIRCQGGNR [VWF_Y1570_Y1570C] | 0.478 |
| KRFAFYRDSPR [FOXE3_Y108_E103K] | 0.443 |
| TAGFSYEKWEI [TEC_Y360] | 0.533 |
| EEEFEYMNRRR [ERBB3_Y1199_D1194E_YF] | 0.554 |
| DPLLTYWFPPK [LMNA_Y481_R482W] | 8.47 |
| IKGNMYYENSY [EGFR_Y112_R108K] | 0.535 |
| VLNHAYENLTR [SYNE2_Y3255_D3253H] | 0.494 |
| NLNGKYYKPRA [ANGPTL3_Y417_N418Y] | 0.408 |
| RSAGKDDVYLI [MECP2_Y120_Y120D] | 0.513 |
| SVVVPYEPPEV [TP53_Y220] | 0.548 |
| AEARMYGVLPW [PLP1_Y207_D203E] | 0.502 |
| ADKSAYLMGPN [MYH7_Y386_L390P] | 0.473 |
| VPHECYAKVFD [ALB_Y394_D389V] | 0.619 |
| VKANTYEKFWL [GATM_Y100_P105L_YF] | 0.382 |
| FSLPAYMDRRD [COX4I1_Y38] | 0.464 |
